Assay results reported in PMC7052508 (Biochemistry and Biophysics Reports, 2020).
Like-named read-outs stand apart in the source and are kept apart here.

B1: α-crystallin (fraction containing αA-crystallin and αB-crystallin) (complex, porcine (purified from porcine lenses))
chain 1: MDIAIQHPWFKRALGPFYPSRLFDQFFGEGLFEYDLLPFLSSTISPYYRQSLFRTVLDSGVSEVRSDRDKFVIFLDVKHFSPEDLTVKVQEDFVEIHGKHNERQDDHGYISREFHRRYRLPSNVDQSALSCSLSADGMLTFSGPKVPSGVDAGHSERAIPVSREEKPSSAPTS
chain 2: MDIAIHHPWIRRPFFPFHSPSRLFDQFFGEHLLESDLFPASTSLSPFYFRPPSFLRAPSWIDTGLSEMRLEKDRFSVNLDVKHFSPEELKVKVLGDVIEVHGKHEERQDEHGFISREFHRKYRIPADVDPLTITSSLSSDGVLTVNGPRRQASGPERTIPITREEKPAVTAAPKK
B2: creatine kinase M (CKMM) (enzyme)
chain: not shown

Tests used:
creatine kinase M (CKMM) [1] = biological target: B2; test: ITC
Chain of creatine kinase M (CKMM) (P00563 whole entry): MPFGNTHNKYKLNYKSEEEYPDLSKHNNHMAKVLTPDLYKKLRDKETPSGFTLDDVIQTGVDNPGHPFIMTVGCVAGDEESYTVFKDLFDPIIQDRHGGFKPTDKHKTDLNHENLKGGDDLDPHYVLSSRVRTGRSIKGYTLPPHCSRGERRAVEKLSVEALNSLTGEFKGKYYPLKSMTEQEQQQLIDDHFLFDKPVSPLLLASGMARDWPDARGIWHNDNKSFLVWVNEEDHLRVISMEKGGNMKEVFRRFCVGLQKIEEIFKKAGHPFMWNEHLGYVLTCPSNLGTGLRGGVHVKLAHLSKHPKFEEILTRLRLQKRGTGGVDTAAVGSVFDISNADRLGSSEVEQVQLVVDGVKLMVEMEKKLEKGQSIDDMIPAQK

SEC-MALS = biological target: the molecule itself; test: SEC-MALS
creatine kinase M (CKMM) [2] = biological target: B2; test: ITC; remark: listed apart in the source
creatine kinase M (CKMM) [3] = biological target: B2; test: ITC; remark: listed apart in the source
[4] = biological target: B1; test: ITC
[5] = biological target: B1; test: ITC; remark: listed apart in the source
[6] = biological target: B1; test: ITC; remark: listed apart in the source
[7] = biological target: B1; test: ITC; remark: listed apart in the source

Ka (creatine kinase M (CKMM) [1])	Kd (creatine kinase M (CKMM) [1])	Ka (creatine kinase M (CKMM) [2])	Kd (creatine kinase M (CKMM) [2])	Ka (creatine kinase M (CKMM) [3])	Kd (creatine kinase M (CKMM) [3])	dH [4]	stoichiometry N [4]	stoichiometry N [5]	dH [6]	stoichiometry N [6]	dH [7]	stoichiometry N [7]	Binder	stoichiometry N (SEC-MALS)
4.37e+06 M⁻¹	228 nM	1.23e+06 M⁻¹	816 nM	3e+06 M⁻¹	333 nM								B1	28 to 40
						130 kcal/mol	0.063	28	102 kcal/mol	0.068	86.6 kcal/mol	0.068	B2	
